Results published in publication PMC3201873.

Target: B′ protein (GyrB C-terminal domain) of M. tuberculosis DNA gyrase (M. tuberculosis)
Experiment: […]) in 50 mM Tris–HCl

Q: How did the Kd turn out when “B′ protein (GyrB C-terminal domain) of M. tuberculosis DNA gyrase (domain or fragment)” was run?
A: < 1000 nM
